Reference: US20110256088A1 (MIT, published 2011)
Bridge positions count the residues as written; N and C are the ends. Ends that are not written are not given here. * marks the point of attachment. Myristoyl = CCCCCCCCCCCCCC(=O)*

Assays:
p32 or gC1q receptor [1] = biological target: T1, p32 or gC1q receptor (human, UniProt Q07021 74-282); experiment: TAMRA-labeled tandem peptide incubated on MDA-MB-435 cells with p32 shRNA or control shRNA
T1 construct: whole, on cells; Endogenous protein on cell lines; also called p32 receptor; cell surface p32
T1 sequence (looked up): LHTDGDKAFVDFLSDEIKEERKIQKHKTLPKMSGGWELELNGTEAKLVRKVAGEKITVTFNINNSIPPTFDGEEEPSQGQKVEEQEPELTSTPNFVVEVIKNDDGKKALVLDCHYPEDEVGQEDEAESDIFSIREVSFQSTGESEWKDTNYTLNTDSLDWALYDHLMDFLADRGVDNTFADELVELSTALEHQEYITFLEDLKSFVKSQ

p32 or gC1q receptor [2] = biological target: T1, p32 or gC1q receptor; experiment: free LyP-1 (5 to 20 µM) as competitor on HeLa cells, read out as GFP silencing
Description: For the initial screen, HeLa cells stably expressing destabilized GFP were cultured in 96-well plates to ˜70-80% confluence. siRNA (0-100 nM) was incubated with 20-fold molar excess of tetramethylrhodamine-labelled tandem peptides in PBS for 10-15 min at room temperature, then incubated over cells in DMEM for 4 h at 37° C., after which the medium was replaced. The complexes were then added to HeLa cell cultures and incubated for 4 h at 37° C., after which the medium was replaced with 100 μL of fresh medium with 10% serum.

Row | Binder | binding result (p32 or gC1q receptor [1]) | binding result (p32 or gC1q receptor [2])
1 | Myristoyl-GWTLNSAGYLLGKINLKALAALAKKILGGGGARALPSQRSR (also: TAMRA label, place not given here, also called untargeted tandem peptide; control peptide (TP-ARAL)) [TP-ARAL tandem peptide] | no binding | 
2 | CGNKRTRGC (disulfide 1-9 (inferred), also called unlabeled LyP-1 peptide) [free LyP-1 peptide] |  | binds
